Measurements: the Immune Epitope Database (IEDB)

Tests used:
[1] = target: HLA-B*07:02; assay: IEDB peptide-MHC binding, purified MHC/direct/fluorescence; filed as Kd, often an IC50 or EC50 that approximates it; ≥ and ≤ were set here for values at or beyond the usual limits of such assays
[2] = target: HLA-B*27:05; assay: as above
[3] = target: HLA-B*58:01; assay: as above
[4] = target: HLA-A*03:01; assay: as above
[5] = target: HLA-A*30:01; assay: as above
[6] = target: HLA-B*08:01; assay: as above
[7] = target: HLA-A*26:01; assay: as above
[8] = target: HLA-A*31:01; assay: as above; conditions: source organism: Pseudomonas aeruginosa
[9] = target: HLA-B*15:01; assay: as above
[10] = target: HLA-B*40:01; assay: as above
[11] = target: HLA-A*69:01; assay: as above
[12] = target: HLA-A*01:01; assay: as above
[13] = target: HLA-A*11:01; assay: as above
[14] = target: HLA-A*02:01; assay: as above
[15] = target: HLA-B*08:02; assay: as above; conditions: source organism: Escherichia coli O157:H7 str. EC869
[16] = target: HLA-A*24:03; assay: as above
[17] = target: HLA-B*08:01; assay: IEDB peptide-MHC binding, purified MHC/competitive/fluorescence; filed as Kd, often an IC50 or EC50 that approximates it; ≥ and ≤ were set here for values at or beyond the usual limits of such assays; conditions: source organism: Salmonella enterica subsp. enterica serovar Typhi
[18] = target: HLA-B*39:01; assay: as above
[19] = target: HLA-A*02:01; assay: as above
[20] = target: HLA-B*44:02; assay: IEDB peptide-MHC binding, purified MHC/direct/fluorescence; filed as Kd, often an IC50 or EC50 that approximates it; ≥ and ≤ were set here for values at or beyond the usual limits of such assays
[21] = target: HLA-B*46:01; assay: as above; conditions: source organism: Yellow fever virus
[22] = target: HLA-B*57:01; assay: as above; conditions: source organism: Yellow fever virus
[23] = target: HLA-B*15:09; assay: as above; conditions: source organism: Yellow fever virus
[24] = target: HLA-A*02:19; assay: IEDB peptide-MHC binding, purified MHC/competitive/fluorescence; filed as Kd, often an IC50 or EC50 that approximates it; ≥ and ≤ were set here for values at or beyond the usual limits of such assays; conditions: source organism: Vibrio antiquarius
[25] = target: HLA-B*51:01; assay: as above; conditions: source organism: Vibrio antiquarius
[26] = target: HLA-A*03:01; assay: as above; conditions: source organism: Vibrio antiquarius
[27] = target: HLA-B*27:03; assay: as above; conditions: source organism: Vibrio antiquarius
[28] = target: HLA-A*26:01; assay: as above; conditions: source organism: Vibrio antiquarius
[29] = target: HLA-B*46:01; assay: as above; conditions: source organism: Vibrio antiquarius
[30] = target: HLA-B*15:01; assay: as above; conditions: source organism: Vibrio antiquarius
[31] = target: HLA-A*69:01; assay: as above; conditions: source organism: Vibrio antiquarius
[32] = target: HLA-B*57:01; assay: as above; conditions: source organism: Vibrio antiquarius
[33] = target: HLA-A*68:02; assay: as above; conditions: source organism: Vibrio antiquarius
[34] = target: HLA-A*02:03; assay: as above; conditions: source organism: Vibrio antiquarius
[35] = target: HLA-A*24:03; assay: as above; conditions: source organism: Vibrio antiquarius
[36] = target: HLA-B*18:01; assay: as above; conditions: source organism: Vibrio antiquarius
[37] = target: HLA-A*02:16; assay: as above
[38] = target: HLA-A*02:12; assay: as above; conditions: source organism: Vibrio antiquarius
[39] = target: HLA-A*02:03; assay: IEDB peptide-MHC binding, purified MHC/direct/fluorescence; filed as Kd, often an IC50 or EC50 that approximates it; ≥ and ≤ were set here for values at or beyond the usual limits of such assays; conditions: source organism: Mycobacterium tuberculosis str. Haarlem
[40] = target: HLA-B*15:42; assay: IEDB peptide-MHC binding, purified MHC/competitive/fluorescence; filed as Kd, often an IC50 or EC50 that approximates it; ≥ and ≤ were set here for values at or beyond the usual limits of such assays; conditions: source organism: Mycobacterium tuberculosis variant bovis BCG str. Pasteur 1173P2
[41] = target: HLA-B*83:01; assay: as above; conditions: source organism: Mycobacterium tuberculosis variant bovis BCG str. Pasteur 1173P2
[42] = target: HLA-B*45:06; assay: as above; conditions: source organism: Mycobacterium tuberculosis variant bovis BCG str. Pasteur 1173P2
[43] = source organism: Pseudomonas aeruginosa
[44] = source organism: Pseudomonas aeruginosa UCBPP-PA14
[45] = source organism: Salmonella enterica subsp. enterica serovar Typhi
[46] = source organism: Yellow fever virus
[47] = source organism: Yersinia enterocolitica
[48] = source organism: Vibrio antiquarius
[49] = source organism: Toxoplasma gondii ME49

Question: What does the source list for DLPPAIAAE?
Answer: Kd [1, 43]: ≥ 20 µM; Kd [2, 43]: ≥ 20 µM; Kd [3, 43]: ≥ 20 µM; Kd [4, 43]: ≥ 20 µM; Kd [5, 43]: 12.6 µM; Kd [6, 43]: ≥ 20 µM; Kd [7, 43]: 1.95 µM; Kd [8]: ≥ 20 µM; Kd [9, 43]: ≥ 10 µM; Kd [10, 43]: ≥ 20 µM; Kd [11, 43]: ≥ 20 µM; Kd [12, 43]: ≥ 20 µM; Kd [13, 43]: ≥ 20 µM; Kd [14, 43]: ≥ 20 µM

Question: Which Kd [15] does the source give for RMKMRRPHL here?
Answer: Its Kd is 2.36 µM.

Question: Which results are given for RTGTRLLGR?
Answer: Kd [1, 44]: ≥ 20 µM; Kd [2, 44]: ≥ 20 µM; Kd [3, 44]: ≥ 20 µM; Kd [4, 43]: 0.252 µM; Kd [5, 43]: 12 µM; Kd [6, 44]: ≥ 20 µM; Kd [7, 44]: ≥ 20 µM; Kd [8]: 0.052 µM; Kd [9, 44]: ≥ 20 µM; Kd [10, 44]: ≥ 20 µM; Kd [11, 44]: ≥ 20 µM; Kd [12, 44]: ≥ 20 µM; Kd [13, 43]: 0.197 µM; Kd [16, 44]: ≥ 20 µM; Kd [14, 44]: ≥ 20 µM

Question: WLMKYPYQL was tested. Which Kd [17] did it give?
Answer: The Kd was 0.0886 µM.

Question: And the Kd [18, 45]?
Answer: Its Kd is ≤ 0.001 µM.

Question: What about the Kd [19, 45] of the same sequence?
Answer: The Kd was 0.0002 µM.

Question: With IQYVIRAQL as the sequence, how does the Kd [2, 46] read?
Answer: The Kd was ≥ 20 µM.

Question: And the Kd [3, 46]?
Answer: The Kd was ≥ 20 µM.

Question: And the Kd [4, 46]?
Answer: Its Kd is ≥ 20 µM.

Question: What about the Kd [20, 46] of the same sequence?
Answer: The Kd was ≥ 20 µM.

Question: And the Kd [21]?
Answer: The Kd was ≥ 20 µM.

Question: What about the Kd [22] of the same sequence?
Answer: The Kd was ≥ 20 µM.

Question: What about the Kd [12, 46] of the same sequence?
Answer: Its Kd is ≥ 20 µM.

Question: And the Kd [23]?
Answer: Its Kd is ≥ 20 µM.

Question: For GYGRVNAGK, which Kd [1, 47] is on record?
Answer: The Kd was ≥ 20 µM.

Question: And the Kd [2, 47]?
Answer: The Kd was ≥ 20 µM.

Question: And the Kd [3, 47]?
Answer: The Kd was ≥ 20 µM.

Question: What about the Kd [4, 47] of the same sequence?
Answer: Its Kd is ≥ 20 µM.

Question: And the Kd [5, 47]?
Answer: The Kd was 9.1 µM.

Question: And the Kd [6, 47]?
Answer: Its Kd is ≥ 20 µM.

Question: And the Kd [20, 47]?
Answer: The Kd was ≥ 20 µM.

Question: What about the Kd [7, 47] of the same sequence?
Answer: Its Kd is ≥ 20 µM.

Question: And the Kd [9, 47]?
Answer: The Kd was ≥ 20 µM.

Question: What about the Kd [10, 47] of the same sequence?
Answer: The Kd was ≥ 20 µM.

Question: What about the Kd [11, 47] of the same sequence?
Answer: Its Kd is ≥ 20 µM.

Question: And the Kd [12, 47]?
Answer: The Kd was ≥ 20 µM.

Question: What about the Kd [13, 47] of the same sequence?
Answer: Its Kd is 6.54 µM.

Question: And the Kd [16, 47]?
Answer: Its Kd is 10.3 µM.

Question: What about the Kd [14, 47] of the same sequence?
Answer: The Kd was ≥ 20 µM.

Question: What does the source list for FDLFGITLY?
Answer: Kd [24]: ≥ 20 µM; Kd [25]: ≥ 20 µM; Kd [26]: ≥ 20 µM; Kd [27]: ≥ 20 µM; Kd [28]: ≥ 20 µM; Kd [29]: ≥ 20 µM; Kd [30]: ≥ 20 µM; Kd [31]: ≥ 20 µM; Kd [32]: ≥ 20 µM; Kd [33]: ≥ 20 µM; Kd [34]: ≥ 20 µM; Kd [18, 48]: ≥ 20 µM; Kd [35]: ≥ 20 µM; Kd [36]: 0.279 µM; Kd [19, 48]: ≥ 20 µM; Kd [37, 48]: ≥ 20 µM; Kd [38]: ≥ 20 µM

Question: Which results are given for AIYDTMQYV?
Answer: Kd ([11]; source organism: Mycobacterium tuberculosis): 0.006 µM; Kd [39]: 0.003 µM; Kd [40]: ≥ 5 µM; Kd [41]: ≥ 5 µM; Kd [42]: ≥ 5 µM

Question: Which results are given for FGGGPWWEV?
Answer: Kd [19, 49]: 0.0122 µM; Kd [37, 49]: 0.0084 µM
